For data set [1], the system named is C.Esp1396I R46A (Enterobacter sp. RFL1396?). As to the kind of experiment: SPR. To be noted: SPR (Biacore T-100): 130 mM NaCl, 10 mM HEPES pH 7.4, 0.05% Tween-20; temperature not stated; 20-1000 nM total protein.
In data set [2] the test system is C.Esp1396I S52A (Enterobacter sp. RFL1396?). Description: SPR. The settings on record: SPR (Biacore T-100): 130 mM NaCl, 10 mM HEPES pH 7.4, 0.05% Tween-20; temperature not stated; 20-1000 nM total protein.
The subject of data set [3] is C.Esp1396I Y37A (Enterobacter sp. RFL1396?). As to the kind of experiment: SPR. The settings on record: SPR (Biacore T-100): 130 mM NaCl, 10 mM HEPES pH 7.4, 0.05% Tween-20; temperature not stated; 20-1000 nM total protein. For orientation: Surface plasmon resonance follows binding to a sensor surface in real time, without labels.
The subject of data set [4] is C.Esp1396I Y37F (Enterobacter sp. RFL1396?). Description: SPR. To be noted: SPR (Biacore T-100): 130 mM NaCl, 10 mM HEPES pH 7.4, 0.05% Tween-20; temperature not stated; 20-1000 nM total protein.
Data set [5] has as its system C.Esp1396I wild type (Enterobacter sp. RFL1396?). As to the kind of experiment: SPR. To be noted: SPR (Biacore T-100): 130 mM NaCl, 10 mM HEPES pH 7.4, 0.05% Tween-20; temperature not stated; 20-1000 nM total protein.
Data set [6] concerns the molecule itself. As to the kind of experiment: crystal structure; free protein crystals, protein at 2-14 mg/mL, diffraction data at 100 K; dimer of the protein with itself.

In general, Kd refers to the constant that tells how readily two partners part at equilibrium. Turning to OM operator duplex, the Kd turned out to be 15.8 nM in data set [1]; 2.6 nM in data set [2]; 5.5 nM in data set [3]; 1.8 nM in data set [4]; 0.51 nM in data set [5].

B1: C.Esp1396I wild type (RM controller protein) (natural protein)
chain: MESFLLSKVSFVIKKIRLEKGMTQEDLAYKSNLDRTYISGIERNSRNLTIKSLELIMKGLEVSDVVFFEMLIKEILKHD
notes: controller (C) protein C.Esp1396I of the Esp1396I restriction-modification system; Residues may be left at the N-terminus after thrombin cleavage; also called native protein; WT; not shown: His6, N-terminal, cleaved
For the molecule B1, the binding result in data set [6] is on record as “binds”.

B2: C.Esp1396I S52A mutant (natural protein)
chain: MESFLLSKVSFVIKKIRLEKGMTQEDLAYKSNLDRTYISGIERNSRNLTIKALELIMKGLEVSDVVFFEMLIKEILKHD
notes: controller (C) protein C.Esp1396I with S52A; Gene synthesised by GenScript; not shown: His6, N-terminal, cleaved
Consider B2, for which the binding result in data set [6] is on record as “binds”.

B3: C.Esp1396I R46A mutant (natural protein)
chain: MESFLLSKVSFVIKKIRLEKGMTQEDLAYKSNLDRTYISGIERNSANLTIKSLELIMKGLEVSDVVFFEMLIKEILKHD
notes: controller (C) protein C.Esp1396I with R46A; Crystallised in two space groups (C2 and P3(2)); not shown: His6, N-terminal, cleaved
In the case of B3, the binding result in data set [6] is on record as “binds”.

B4: C.Esp1396I Y37A mutant (natural protein)
chain: MESFLLSKVSFVIKKIRLEKGMTQEDLAYKSNLDRTAISGIERNSRNLTIKSLELIMKGLEVSDVVFFEMLIKEILKHD
notes: controller (C) protein C.Esp1396I with Y37A; Gene synthesised by GenScript; not shown: His6, N-terminal, cleaved
Regarding B4, in data set [6], the binding result is recorded as “binds”.

B5: C.Esp1396I T36A mutant (natural protein)
chain: MESFLLSKVSFVIKKIRLEKGMTQEDLAYKSNLDRAYISGIERNSRNLTIKSLELIMKGLEVSDVVFFEMLIKEILKHD
notes: controller (C) protein C.Esp1396I with T36A; not shown: His6, N-terminal, cleaved
In the case of B5, the binding result in data set [6] was “binds”.

B6: C.Esp1396I Y37F mutant (natural protein)
chain: MESFLLSKVSFVIKKIRLEKGMTQEDLAYKSNLDRTFISGIERNSRNLTIKSLELIMKGLEVSDVVFFEMLIKEILKHD
notes: controller (C) protein C.Esp1396I with Y37F; Gene synthesised by GenScript; not shown: His6, N-terminal, cleaved
Consider B6, for which the binding result in data set [6] is given as “binds”.

For the origin of these results see publication PMC4041747, “Structural and Mutagenic Analysis of the RM Controller Protein C.Esp1396I” (PLoS ONE, 2014).
